{"source": "paper PMC11350156", "key": {"[1]": {"molecular_target": "T1, UL84-6xHis (Human cytomegalovirus, UniProt P16727 1-586)", "T1 sequence": "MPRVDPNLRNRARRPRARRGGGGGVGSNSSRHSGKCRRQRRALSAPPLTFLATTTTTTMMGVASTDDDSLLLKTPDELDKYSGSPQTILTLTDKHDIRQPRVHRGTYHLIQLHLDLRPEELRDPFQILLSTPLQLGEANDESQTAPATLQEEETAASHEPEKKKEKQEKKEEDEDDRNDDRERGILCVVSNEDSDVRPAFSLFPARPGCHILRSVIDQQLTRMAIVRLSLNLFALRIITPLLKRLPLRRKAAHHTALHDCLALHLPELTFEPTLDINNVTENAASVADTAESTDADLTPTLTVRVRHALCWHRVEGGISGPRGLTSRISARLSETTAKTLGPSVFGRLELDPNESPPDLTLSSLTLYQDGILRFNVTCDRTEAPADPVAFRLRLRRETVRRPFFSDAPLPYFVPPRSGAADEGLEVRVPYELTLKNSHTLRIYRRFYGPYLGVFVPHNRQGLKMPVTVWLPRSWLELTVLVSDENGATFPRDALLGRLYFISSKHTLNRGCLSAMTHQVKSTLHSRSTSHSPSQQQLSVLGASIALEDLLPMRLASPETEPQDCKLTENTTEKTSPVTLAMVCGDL", "assay": "pull-down immunoblot"}, "[2]": {"molecular_target": "T2, 6xHis-UL44(1-290) (Human cytomegalovirus, UniProt P16790 1-290)", "T2 sequence (P16790 1-290)": "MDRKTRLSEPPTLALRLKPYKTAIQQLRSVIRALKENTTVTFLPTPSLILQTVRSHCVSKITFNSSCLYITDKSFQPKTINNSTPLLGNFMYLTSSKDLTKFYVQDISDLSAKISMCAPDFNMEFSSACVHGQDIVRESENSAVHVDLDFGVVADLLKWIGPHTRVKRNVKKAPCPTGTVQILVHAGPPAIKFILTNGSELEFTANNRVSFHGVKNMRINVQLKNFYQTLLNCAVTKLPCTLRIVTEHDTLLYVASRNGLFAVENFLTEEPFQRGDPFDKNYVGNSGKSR", "assay": "pull-down immunoblot"}, "[3]": {"molecular_target": "T3, 6xHis-IE2(87-579) (Human cytomegalovirus, UniProt Q6SWP7 87-579)", "T3 sequence": "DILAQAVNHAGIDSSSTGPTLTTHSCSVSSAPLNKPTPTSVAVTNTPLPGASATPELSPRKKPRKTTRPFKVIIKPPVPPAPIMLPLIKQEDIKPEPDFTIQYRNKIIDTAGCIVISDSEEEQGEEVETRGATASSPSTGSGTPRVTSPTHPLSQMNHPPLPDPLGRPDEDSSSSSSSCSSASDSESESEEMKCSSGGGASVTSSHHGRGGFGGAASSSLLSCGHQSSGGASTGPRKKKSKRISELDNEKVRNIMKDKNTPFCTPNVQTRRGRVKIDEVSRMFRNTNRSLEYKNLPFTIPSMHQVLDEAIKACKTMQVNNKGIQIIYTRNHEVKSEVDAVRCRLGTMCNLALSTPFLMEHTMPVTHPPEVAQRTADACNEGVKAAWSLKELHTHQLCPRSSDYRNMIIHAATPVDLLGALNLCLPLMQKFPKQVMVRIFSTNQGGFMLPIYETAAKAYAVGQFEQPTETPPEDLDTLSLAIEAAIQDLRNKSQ", "assay": "pull-down immunoblot"}, "[4]": {"molecular_target": "T1, UL84-6xHis", "assay": "ELISA"}, "[5]": {"molecular_target": "T2, 6xHis-UL44(1-290)", "assay": "ELISA"}, "[6]": {"molecular_target": "T3, 6xHis-IE2(87-579)", "assay": "ELISA"}, "[7]": {"molecular_target": "T1, UL84-6xHis", "assay": "pull-down"}, "[8]": {"molecular_target": "T2, 6xHis-UL44(1-290)", "assay": "pull-down"}, "[9]": {"molecular_target": "T3, 6xHis-IE2(87-579)", "assay": "pull-down"}}, "data": [{"binder": "AAGGGAAAGGGTGAGGGGGGGGGGTT (structured_DNA)", "note": "[oriG4-1 L1]", "values": [{"measurement": "binding result", "setting": "[1]", "result": "binds"}, {"measurement": "binding result", "setting": "[2]", "result": "binds"}, {"measurement": "binding result", "setting": "[3]", "result": "binds"}]}, {"binder": "AAGGGGGGGGGTGAGGGGGGGGGGTT (structured_DNA)", "note": "[oriG4-1]", "values": [{"measurement": "Kd", "setting": "[4]", "result": 14.2, "unit": "nM"}, {"measurement": "Kd", "setting": "[5]", "result": 25.5, "unit": "nM"}, {"measurement": "Kd", "setting": "[6]", "result": 123, "unit": "nM"}]}, {"binder": "AAGGAGAGAGGTGAGGAGGAAAGGTT (ssDNA)", "note": "[oriG4-1m]", "values": [{"measurement": "binding result", "setting": "[7]", "result": "no binding"}, {"measurement": "binding result", "setting": "[8]", "result": "no binding"}, {"measurement": "binding result", "setting": "[9]", "result": "no binding"}]}]}
